Test results reported in patent publication US20260008865A1 (TETHEREX PHARMACEUTICALS, published 2026).

Legend:
[1] = biological target: T1, SelSP1 (PSGL-1 sulfopeptide); test: SPR (SensiQ Pioneer), about 1,000 RU SelK2 captured on Protein G, SelSP1 as analyte, 25 °C, 1:1 model
T1 construct: also called sulfopeptide modelled after the N-terminus of human PSGL-1
Protocol: (§1) SensíQ Pioneer (S/N 13110154) was used for all SPR measurements at a controlled temperature of 25° C. SelK2 (Lot #14-2189) was dispensed into three 1 mL aliquots in the biosafety cabinet. Protein G was purchased from BioVision (Cat. #6510). Running buffer for Pioneer contained 10 mM HEPES pH 7.4, 150 mM NaCl, 3.4 mM EDTA and 0.005% Tween-20. All other reagents were purchased from Sigma Aldrich.
(§2) A new COOH2 biosensor was installed and conditioned according to CH0012 protocol. Protein G was immobilized via amine coupling. A mixture containing 0.1M EDC and 0.025M NHS was injected for 4 minutes over flow channel 1 (FC1) and FC2. 50 μg/mL Protein G in 10 mM Sodium acetate buffer pH 4.5 was injected for 15 minutes over FC1 and FC2. 1M Ethanolamine HCl solution pH 8.0 was injected for 5 minutes over FC1 and FC2. Approximately 1,145 response units (RU) of Protein G was coupled on FC1 and FC2 of the sensor chip. 50 nM SelK2 in system buffer was injected to capture approximately 2,000 RU SelK2 on FC1 and 1,000 RU on FC2. […] Each sample was injected for 3 min at a flow rate of 40 μL/min. Dissociation was monitored after each injection for 4 min at the same flow rate. Samples were tested in duplicate from low concentration to high.
(§3) Kinetic model fitting was performed using Qdat analysis software (SensiQ Technologies, Inc. Version 2.5.1.56). A simple 1:1 kinetic model was fit to the data to determine best fit values for association and dissociation rate constants, ka and kd. A local Rmax was fit for each curve to account for incomplete dissociation of the SelSP1 after some of the analyte injections.

[2] = biological target: T1, SelSP1 (PSGL-1 sulfopeptide); test: SPR (SensiQ Pioneer), about 2,000 RU SelK2 captured on Protein G, SelSP1 as analyte, 25 °C, 1:1 model
Protocol: as §1, §2, §3

[3] = biological target: T1, SelSP1 (PSGL-1 sulfopeptide); test: SPR; summary sentence in the description; target printed as PSGL-1, but the worked example used the PSGL-1 sulfopeptide SelSP1
[4] = biological target: T1, SelSP1 (PSGL-1 sulfopeptide); test: SPR, captured SelK2, SelSP1 as analyte; value told over the two surface densities
Protocol: as §2, §3

B1: SelK2 (antibody, human IgG2, kappa, V domains shown)
VH: QVQLVESGGGVVQPGRSLRLSCAASGFTFSSFGMHWVRQAPGKGLEWVAYISSASSTIYYADTVKGRFTISRDNSKNTLYLQMNSLRAEDTAVYYCASSYGYWGQGTLVTVSS
VL: DIVMTQTPLSLPVTPGEPASISCRSSRSLVHSNGNTYLHWYLQKPGQSPQLLIYKVSNRFSGVPDRFSGSGSGTDFTLKISRVEAEDVGVYYCSQTTHVPLTFGQGTRLEIKR
notes: human kappa light chain; also called SelK2 antibody; humanised anti-PSGL-1 antibody
With B1 the Kd [1] was 4.27 nM, the koff [1] was 0.00232 s⁻¹ and the kon [1] was 544000 M⁻¹ s⁻¹. The Kd [2] was 4.29 nM, the koff [2] was 0.00218 s⁻¹ and the kon [2] was 508000 M⁻¹ s⁻¹. The “fold increase in affinity against the parental antibody” value [3] was ~4 fold and the Kd [4] was 4.28 nM.
